Results published in paper PMC4149556.

Molecular target: T1, Rev (HIV-1) (UniProt P04618)
T1 sequence: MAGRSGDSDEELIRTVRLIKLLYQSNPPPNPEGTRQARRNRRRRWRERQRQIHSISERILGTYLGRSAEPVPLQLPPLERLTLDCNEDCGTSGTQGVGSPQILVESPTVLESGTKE
Test: EMSA
Conditions: native 4% PAGE; constant 32P-RRE RNA with 20, 40 or 80 ng Rev; buffer, salt, pH and temperature not given

## GAGAAGAGUGGUGCAGAGAGAAAAAAGAGCAGUGGGAACAAUAGGAGCUAUGUUCCUUGGGUCCUUGGGAGCAGCAGGAAGCACUAUGGGCGCAGCGUCAAUAACGCUGACGGUACAGGCCAGACAAUUACUGUCUGGUAUAGUGCAACAGCAAAACAACUUGCUGAGGGCUAUUGAGGCGCAACAACAUCUGUUGCAACUCACAGUCUGGGGCAUCAAGCAGCUCCAGGCGAGAGUCCUGGCUGUGGAAAGAUACCUAAGGGAUCAACAGCUCCUAGGGAUUUGGGGUUGCUCUGGAAGACUCAUUUGCACCACUGCUGUGCCUUGGAAUG [RREWT (40Q-45L)]
  binding signal (% RNA shifted): 96
